# Patent US7084109B2, “FVIIa antagonists” (Genentech, Inc., priority 1999, dated 2006)
# No end group written: not given here.
# What was measured:
# [1] = target: TF-FVIIa (Homo sapiens, UniProt P08709); test: FX Activation Assay (activation of FX by TF-FVIIa); assay type: biochemical
# Procedure: FX Activation Assay—Activation of FX by TF-FVIIa was monitored at room temperature as a function of peptide concentration. Each assay sample contained 100 μl of 460 pM relipidated TF1-243 (TFPC) (Kelley, R. F. et al. (1997) Blood 89:3219-3227) and 30 pM FVIIa in HBS/Ca buffer (20 mM HEPES, pH 7.4, 5 mM CaCl2, 150 mM NaCl, 0.1% PEG 8000); after 20 min, 25 μl of peptide diluted in HBS/Ca Buffer was added. Following a 30 min incubation the reaction was initiated by the addition of 25 μl of 1 μM FX in HBS/Ca (Note: this yields a final concentration of 306 pM TFPC, 20 pM FVIIa, and 166 nM FX). For kinetic analysis, the final concentration of FX was varied from between 20 and 500 nM. Aliquots of 25 μl were removed at 1, 3, 5, 7 and 9 min and quenched in 25 μl of 50 mM EDTA. The FXa generated in each aliquot could be measured by the addition of 100 μl of 250 nM Spectrozyme fXa (American Diagnostica), 50 mM Tris, pH 8, 50 mM NaCl, 0.0025% Triton X-100. The rate of FXa generated at each peptide concentration was proportional to the initial slope of the absorbance at 405 nm vs. time. Sigmoidal curves were fit to a four parameter equation by nonlinear regression analysis (Marquardt, J. Soc. Indust. Appl. Math. 11:431-441 (1963); the concentration of each peptide required to give a half-maximal signal in the assay was calculated from the curves and is referred to as the IC50 value. […]
# [2] = tested on: TF dependent extrinsic clotting pathway in human plasma; test: Prothrombin time (PT) clotting assay
# Procedure: Clotting Assays—Prothrombin time (PT) and activated partial thromboplastin time (APTT) clotting time assays were performed in citrated pooled normal plasmas (human or various animal species). Clotting times were determined using an ACL 300 Automated Coagulation Analyzer (Coulter Corp., Miami, Fla.) and commercially available reagents as follows.
# For the PT assay, aqueous solutions of inhibitor at various concentrations were added to citrated pooled normal plasma in a ratio of 1 part inhibitor to 9 parts plasma. Following a 30 min incubation, these mixtures were added to sample cups of an ACL 300 Analyzer. Innovin® (Dade International Inc., Miami, Fla.), a mixture of human relipidated tissue factor and Ca^2+ ions was added to the reagent cup. Precise volumes of sample and Innovin® (50 μl sample, 100 μl Innovin) were automatically transferred to cells of an acrylic rotor pre-equilibrated to 37° C. Following a 2 min incubation period, coagulation was initiated by mixing the two components by centrifugation. Coagulation was monitored optically and clotting time was reported in seconds. In this system, the clotting time of control plasmas (plasma plus inhibitor diluent) was typically 8 to 10 seconds. The fold prolongation is the clotting time of the inhibitor relative to the clotting time of the control.
# Clotting Assays—The PT clotting assay was carried out as described in Example 1.
# TF-FVIIa, sequence (P08709 61-212 limits assumed): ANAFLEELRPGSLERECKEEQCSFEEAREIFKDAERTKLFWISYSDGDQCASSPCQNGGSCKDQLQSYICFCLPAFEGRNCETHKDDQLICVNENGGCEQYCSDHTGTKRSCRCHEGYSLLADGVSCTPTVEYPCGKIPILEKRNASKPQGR
# TF-FVIIa, sequence (P08709 213-466 limits assumed): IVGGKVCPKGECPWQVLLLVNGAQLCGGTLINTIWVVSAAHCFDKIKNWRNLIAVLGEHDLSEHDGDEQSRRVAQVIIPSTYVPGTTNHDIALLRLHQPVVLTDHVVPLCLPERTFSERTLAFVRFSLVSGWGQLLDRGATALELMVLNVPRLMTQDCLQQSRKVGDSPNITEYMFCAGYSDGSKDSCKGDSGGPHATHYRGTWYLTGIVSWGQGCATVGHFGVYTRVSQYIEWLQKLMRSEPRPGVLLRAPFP
# TF-FVIIa, sequence (P13726 33-275 partner limits assumed): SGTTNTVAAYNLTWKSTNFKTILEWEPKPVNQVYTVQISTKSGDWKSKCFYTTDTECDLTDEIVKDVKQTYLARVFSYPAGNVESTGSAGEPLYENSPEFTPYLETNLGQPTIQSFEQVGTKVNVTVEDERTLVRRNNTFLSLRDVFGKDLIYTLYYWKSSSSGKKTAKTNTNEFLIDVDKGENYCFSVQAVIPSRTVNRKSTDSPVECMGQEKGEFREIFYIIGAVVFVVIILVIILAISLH
substance,measurement,setting,value
"TF151-Fc: peptide sequence TF151 with a GGGSSG linker fused to the Fc portion of human IgG1, expressed in insect cells; forms a dimer (SQAQRRAVGALCDNPRIDRWYCQFVEGGGGSSG-{human IgG1 Fc}; cysteine pairing not given here; also: dimer)",ability to inhibit FX activation by TF-FVIIa,[1],comparable to the peptide TF151
same,prolongation of the prothrombin time (potency),[2],comparable to peptide TF151
